From patent publication US10738094B2, “Peptides and combination of peptides for use in immunotherapy against ovarian cancer and other cancers” (immatics biotechnologies GmbH, priority 2015, dated 2020)

Target: HLA-A*02:01 (Homo sapiens, UniProt P04439, D140Y/D185E/D98H/E176V/E277Q/G131W/G231S/I119V/I121R/I166T/I218V/L300P/L318F/N151K/N90K/P208A/P217A/Q86G/Q94H/R138H/R169H/T345S)
Assay: MHC binding assay (UV-ligand exchange, beta2m ELISA)
Conditions: binding to HLA-A*02:01 ranged by peptide exchange yield (UV-ligand exchange, β2m ELISA)
Method in brief: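 UV-cleavable ligand in peptide-MHC complexes was exchanged for test peptide. Exchange yield came from an ELISA on streptavidin-captured complexes diluted 100 fold, detecting β2m with HRP anti-β2m (2 ug/ml, 1 h, 37° C.), TMB, A450.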

| Substance | Peptide exchange |
| --- | --- |
| 516 (AVGPASILKEV; listed as Homo sapiens) [compound 516] | “++” (≥20% = ++) |
| 612 (YLYNEGLSV; listed as Homo sapiens) [compound 612] | “+++” (≥50 = +++) |
| 403 (KLYDRILRV; listed as Homo sapiens) [compound 403] | “++” (≥20% = ++) |
| 474 (YLDPALELGPRNV; listed as Homo sapiens) [compound 474] | “+++” (≥50 = +++) |
| 376 (AMFESSQNVLL; listed as Homo sapiens) [compound 376] | “++” (≥20% = ++) |
| 475 (LLLNEEALAQI; listed as Homo sapiens) [compound 475] | “+++” (≥50 = +++) |
| 444 (GLLRDEALAEV; listed as Homo sapiens) [compound 444] | “+++” (≥50 = +++) |
| 600 (ALAAPDIVPAL; listed as Homo sapiens) [compound 600] | “+++” (≥50 = +++) |
| 251 (ALYTGFSILV; listed as Homo sapiens) [compound 251] | “++” (≥20% = ++) |
| 578 (FLDPGGPMMKL; listed as Homo sapiens) [compound 578] | “+++” (≥50 = +++) |
| 297 (VLADIELAQA; listed as Homo sapiens) [compound 297] | “+++” (≥50 = +++) |
| 272 (ALGNTVPAV; listed as Homo sapiens) [compound 272] | “+++” (≥50 = +++) |
| 40 (TLLVKVFSV; listed as Homo sapiens) [compound 40] | “+++” (≥50 = +++) |
| 571 (LLLTTIPQI; listed as Homo sapiens) [compound 571] | “+++” (≥50 = +++) |
| 365 (YVIDQGETDVYV; listed as Homo sapiens) [compound 365] | “+++” (≥50 = +++) |
| 477 (ALLPASGQIAL; listed as Homo sapiens) [compound 477] | “+++” (≥50 = +++) |
| 15 (VLLTFKIFL; listed as Homo sapiens) [compound 15] | “++” (≥20% = ++) |
| 448 (NLLETKLQL; listed as Homo sapiens) [compound 448] | “+++” (≥50 = +++) |
| 62 (VLLDVSAGQLLM; listed as Homo sapiens) [compound 62] | “++++” (≥75% = ++++) |
| 438 (KLLPLAGLYL; listed as Homo sapiens) [compound 438] | “++++” (≥75% = ++++) |
| 19 (FMVDNEAIYDI; listed as Homo sapiens) [compound 19] | “++++” (≥75% = ++++) |
| 471 (YLYNNMIAKI; listed as Homo sapiens) [compound 471] | “+++” (≥50 = +++) |
| 21 (VLDELDMEL; listed as Homo sapiens) [compound 21] | “++” (≥20% = ++) |
| 44 (ILDPISSGFLL; listed as Homo sapiens) [compound 44] | “++” (≥20% = ++) |
| 31 (YLAPELFVNV; listed as Homo sapiens) [compound 31] | “++” (≥20% = ++) |
| 391 (YVYPQRLNFV; listed as Homo sapiens) [compound 391] | “+++” (≥50 = +++) |

| Substance | Peptide exchange |
| --- | --- |
| 498 (KLWTGGLDNTV; listed as Homo sapiens) [compound 498] | “+++” (≥50 = +++) |
| 568 (TLYDIAHTPGV; listed as Homo sapiens) [compound 568] | “++++” (≥75% = ++++) |
| 86 (NLIGKIENV; listed as Homo sapiens) [compound 86] | “+++” (≥50 = +++) |
| 229 (RLPGPLGTV; listed as Homo sapiens) [compound 229] | “++” (≥20% = ++) |
| 219 (KLSDIGITV; listed as Homo sapiens) [compound 219] | “+++” (≥50 = +++) |
| 351 (SLIPNLRNV; listed as Homo sapiens) [compound 351] | “+++” (≥50 = +++) |
| 386 (ILFRYPLTI; listed as Homo sapiens) [compound 386] | “+++” (≥50 = +++) |
| 147 (SLLEAVSFL; listed as Homo sapiens) [compound 147] | “+++” (≥50 = +++) |
| 607 (RLYSGISGLEL; listed as Homo sapiens) [compound 607] | “+++” (≥50 = +++) |
| 347 (SLFKHDPAAWEA; listed as Homo sapiens) [compound 347] | “++++” (≥75% = ++++) |
| 302 (ALLQEGEVYSA; listed as Homo sapiens) [compound 302] | “+++” (≥50 = +++) |
| 595 (VLLSIYPRV; listed as Homo sapiens) [compound 595] | “+++” (≥50 = +++) |
| 537 (TLAPGEVLRSV; listed as Homo sapiens) [compound 537] | “+++” (≥50 = +++) |
| 620 (KLLNKIYEA; listed as Homo sapiens) [compound 620] | “++++” (≥75% = ++++) |
| 401 (ILLDDTGLAYI; listed as Homo sapiens) [compound 401] | “+++” (≥50 = +++) |
| 256 (FLPPEHTIVYI; listed as Homo sapiens) [compound 256] | “+++” (≥50 = +++) |
| 527 (FLLEPGNLEV; listed as Homo sapiens) [compound 527] | “++++” (≥75% = ++++) |
| 232 (ALLEAQDVELYL; listed as Homo sapiens) [compound 232] | “++” (≥20% = ++) |
| 301 (FLVEDLVDSL; listed as Homo sapiens) [compound 301] | “+++” (≥50 = +++) |
| 408 (VLDDSIYLV; listed as Homo sapiens) [compound 408] | “++” (≥20% = ++) |
| 190 (FLSSLTETI; listed as Homo sapiens) [compound 190] | “+++” (≥50 = +++) |
| 459 (ALITEVVRL; listed as Homo sapiens) [compound 459] | “++” (≥20% = ++) |
| 399 (YLFEPLYHV; listed as Homo sapiens) [compound 399] | “+++” (≥50 = +++) |
| 225 (SLLKVLPAL; listed as Homo sapiens) [compound 225] | “+++” (≥50 = +++) |
| 472 (KLLEVSDDPQV; listed as Homo sapiens) [compound 472] | “+++” (≥50 = +++) |
| 144 (YIMEPSIFNTL; listed as Homo sapiens) [compound 144] | “+++” (≥50 = +++) |

| Substance | Peptide exchange |
| --- | --- |
| 364 (LLQNEQFEL; listed as Homo sapiens) [compound 364] | “+++” (≥50 = +++) |
| 453 (KLLEATSAV; listed as Homo sapiens) [compound 453] | “++” (≥20% = ++) |
| 296 (FMEGAIIYV; listed as Homo sapiens) [compound 296] | “+++” (≥50 = +++) |
| 157 (SLNDEVPEV; listed as Homo sapiens) [compound 157] | “++” (≥20% = ++) |
| 449 (KLAEGLDIQL; listed as Homo sapiens) [compound 449] | “+++” (≥50 = +++) |
| 107 (FLQPVDDTQHL; listed as Homo sapiens) [compound 107] | “+++” (≥50 = +++) |
| 303 (AILPQLFMV; listed as Homo sapiens) [compound 303] | “++++” (≥75% = ++++) |
| 288 (NLINEINGV; listed as Homo sapiens) [compound 288] | “+++” (≥50 = +++) |
| 280 (VLPDPEVLEAV; listed as Homo sapiens) [compound 280] | “+++” (≥50 = +++) |
| 167 (KVLEVTEEFGV; listed as Homo sapiens) [compound 167] | “+++” (≥50 = +++) |
| 314 (ALIAEGIALV; listed as Homo sapiens) [compound 314] | “+++” (≥50 = +++) |
| 605 (KLYEAVPQL; listed as Homo sapiens) [compound 605] | “+++” (≥50 = +++) |
| 26 (ALLELAEEL; listed as Homo sapiens) [compound 26] | “+++” (≥50 = +++) |
| 329 (FLVTLNNVEV; listed as Homo sapiens) [compound 329] | “++++” (≥75% = ++++) |
| 309 (GLFDGVPTTA; listed as Homo sapiens) [compound 309] | “+++” (≥50 = +++) |
| 306 (ALVNVQIPL; listed as Homo sapiens) [compound 306] | “+++” (≥50 = +++) |
| 53 (KMIETDILQKV; listed as Homo sapiens) [compound 53] | “++++” (≥75% = ++++) |
| 557 (KLYDDMIRL; listed as Homo sapiens) [compound 557] | “+++” (≥50 = +++) |
| 328 (ALNDQVFEI; listed as Homo sapiens) [compound 328] | “+++” (≥50 = +++) |
| 169 (NLPEYLPFV; listed as Homo sapiens) [compound 169] | “+++” (≥50 = +++) |
| 602 (YLLEQIKLIEV; listed as Homo sapiens) [compound 602] | “++++” (≥75% = ++++) |
| 441 (ALLENPKMEL; listed as Homo sapiens) [compound 441] | “+++” (≥50 = +++) |
| 525 (VLLEAGEGLVTI; listed as Homo sapiens) [compound 525] | “+++” (≥50 = +++) |
| 184 (YLMDINGKMWL; listed as Homo sapiens) [compound 184] | “+++” (≥50 = +++) |
| 307 (ALPVSLPQI; listed as Homo sapiens) [compound 307] | “+++” (≥50 = +++) |
| 431 (SLVNVVPKL; listed as Homo sapiens) [compound 431] | “++” (≥20% = ++) |
